Reference: publication PMC11417369, “DNA sequence and chromatin differentiate sequence-specific transcription factor binding in the human malaria parasite Plasmodium falciparum”
Positions count from the first letter of the chain named.

T1: SIP2 D1 (Plasmodium falciparum, UniProt C6KSN9 177-235)
T1 sequence: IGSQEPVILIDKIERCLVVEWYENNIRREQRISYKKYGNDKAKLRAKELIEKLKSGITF

B1: GTGCAC_site9418 (dsDNA)
DNA 1: ATGATATATTTAATAGTGCACTAATTAAAATTATTA
DNA 2: TAATAATTTTAATTAGTGCACTATTAAATATATCAT
B2: GTGCAC_site9914 (dsDNA)
DNA 1: TGGCTTTCCCTGCCGGTGCATTAACATTTTTTACAT
DNA 2: ATGTAAAAAATGTTAATGCACCGGCAGGGAAAGCCA
B3: GTGCAC_site10002 (dsDNA)
DNA 1: TATAAGGCAATAATAGTGCACTAAGATATATAATGA
DNA 2: TCATTATATATCTTAGTGCACTATTATTGCCTTATA
B4: GTGCAC_site9557 (dsDNA)
DNA 1: TTTTTATGGACTATGGTGCATTATATATAAATGAAA
DNA 2: TTTCATTTATATATAATGCACCATAGTCCATAAAAA
B5: GTGCAC_site10014 (dsDNA)
DNA 1: TTTACCTCTTCAATGGTGCAATAACTCAAAAATTTG
DNA 2: CAAATTTTTGAGTTATTGCACCATTGAAGAGGTAAA
B6: GTGCAC_site9835 (dsDNA)
DNA 1: ATTTAAAAGTTGGTAGTGCATTAAAAATAACAAAAA
DNA 2: TTTTTGTTATTTTTAATGCACTACCAACTTTTAAAT
B7: GTGCAC_site10253 (dsDNA)
DNA 1: TTTTTTTTTTTGATGGTGCAATATATTAAATAGAAA
DNA 2: TTTCTATTTAATATATTGCACCATCAAAAAAAAAAA
B8: GTGCAC_site9729 (dsDNA)
DNA 1: GAACAAATTAAATAGGTGCATTAACATGTTCTATTT
DNA 2: AAATAGAACATGTTAATGCACCTATTTAATTTGTTC
B9: GTGCAC_site10285 (dsDNA)
DNA 1: CATAAATAAGCTTTAGTGCATTATATTTAAATTTTT
DNA 2: AAAAATTTAAATATAATGCACTAAAGCTTATTTATG
B10: GTGCAC_site10146 (dsDNA)
DNA 1: GAGGTACATTAATTAGTGCATTAAAATTTTTATCCT
DNA 2: AGGATAAAAATTTTAATGCACTAATTAATGTACCTC
B11: GTGCAC_site10254 (dsDNA)
DNA 1: GTATATAAATAAATAGTGCATTATTAAAAATAATGT
DNA 2: ACATTATTTTTAATAATGCACTATTTATTTATATAC
B12: GTGCAC_site10275 (dsDNA)
DNA 1: AATATTCATATGCAGGTGCATTAATTTTTATTAATT
DNA 2: AATTAATAAAAATTAATGCACCTGCATATGAATATT
B13: GTGCAC_site9795 (dsDNA)
DNA 1: ATCATATTTATGTTGGTGCATTATGCATGGATTTTA
DNA 2: TAAAATCCATGCATAATGCACCAACATAAATATGAT
B14: GTGCAC_site9437 (dsDNA)
DNA 1: CATTTTCATTTTAAGGTGCATTAATATTTATTTTAA
DNA 2: TTAAAATAAATATTAATGCACCTTAAAATGAAAATG
B15: GTGCAC_site10298 (dsDNA)
DNA 1: ATTTATTTCTTGTTAGTGCACTTTCTTTGGTAAAAT
DNA 2: ATTTTACCAAAGAAAGTGCACTAACAAGAAATAAAT
B16: GTGCAC_site9879 (dsDNA)
DNA 1: TTTTTATTTTTAGTAGTGCATTAATCATATGGTCAT
DNA 2: ATGACCATATGATTAATGCACTACTAAAAATAAAAA
B17: GTGCAC_site10158 (dsDNA)
DNA 1: AGGTTTTCTTAAATAGTGCATTATAACAAAAATAAA
DNA 2: TTTATTTTTGTTATAATGCACTATTTAAGAAAACCT
B18: GTGCAC_site9571 (dsDNA)
DNA 1: B13 DNA 1 with G12A, G30A, T32A
DNA 2: B13 DNA 2 with A5T, C7T, C25T
B19: GTGCAC_site9419 (dsDNA)
DNA 1: ATATAAAGTATGTTAGTGCACTTTTTTTTTTTTTTT
DNA 2: AAAAAAAAAAAAAAAGTGCACTAACATACTTTATAT
B20: GTGCAC_site9493 (dsDNA)
DNA 1: TAAAATTATTAATGAGTGCATTATAAAATCTATATA
DNA 2: TATATAGATTTTATAATGCACTCATTAATAATTTTA
B21: GTGCAC_site9711 (dsDNA)
DNA 1: TTAAATTATTAGAGAGTGCATTATATATATTATACA
DNA 2: TGTATAATATATATAATGCACTCTCTAATAATTTAA
B22: GTGCAC_site9883 (dsDNA)
DNA 1: ATTAAATGCAGTTCGGTGCATTAAGGTTATGATGAA
DNA 2: TTCATCATAACCTTAATGCACCGAACTGCATTTAAT
B23: GTGCAC_site9836 (dsDNA)
DNA 1: ATTATATACATTTTAGTGCATTACATAATAATATAA
DNA 2: TTATATTATTATGTAATGCACTAAAATGTATATAAT
B24: GTGCAC_site10763 (dsDNA)
DNA 1: AGGATAAAAGTTATGGTGCATTAACCTATTTAAATA
DNA 2: TATTTAAATAGGTTAATGCACCATAACTTTTATCCT
B25: GTGCAC_site10332 (dsDNA)
DNA 1: ATTACATTAATAAGAGTGCATTATATAAGTTTTATG
DNA 2: CATAAAACTTATATAATGCACTCTTATTAATGTAAT
B26: GTGCAC_site10403 (dsDNA)
DNA 1: CTGTAAAATGTGATGGTGCATATTAATTTAGTTGTA
DNA 2: TACAACTAAATTAATATGCACCATCACATTTTACAG
B27: GTGCAC_site10759 (dsDNA)
DNA 1: ATTAAATTTCCTTGAGTGCACATTTTGTTAAAATAT
DNA 2: ATATTTTAACAAAATGTGCACTCAAGGAAATTTAAT
B28: GTGCAC_site10547 (dsDNA)
DNA 1: CGTTGGTATTAAAAGGTGCAATGAAATAATATATTA
DNA 2: TAATATATTATTTCATTGCACCTTTTAATACCAACG
B29: GTGCAC_site10385 (dsDNA)
DNA 1: GTGGTTGTAATGGTGGTGCATATTGTATATTATGTT
DNA 2: AACATAATATACAATATGCACCACCATTACAACCAC
B30: GTGCAC_site9720 (dsDNA)
DNA 1: TATATTAAAAAAGAGGTGCATTCGTAAGAGGTTAAA
DNA 2: TTTAACCTCTTACGAATGCACCTCTTTTTTAATATA
B31: GTGCAC_site10505 (dsDNA)
DNA 1: ATTATTACTTTTTGAGTGCACATACACACAGACATA
DNA 2: TATGTCTGTGTGTATGTGCACTCAAAAAGTAATAAT
B32: GTGCAC_site10688 (dsDNA)
DNA 1: AGTGACACCAAAGGGGTGCAATGAAATTAAAAATAT
DNA 2: ATATTTTTAATTTCATTGCACCCCTTTGGTGTCACT
B33: GTGCAC_site10397 (dsDNA)
DNA 1: ATATATAATAAACAGGTGCATTGTTTTATTTTGTAT
DNA 2: ATACAAAATAAAACAATGCACCTGTTTATTATATAT
B34: GTGCAC_site10141 (dsDNA)
DNA 1: ACCCATTTTAATTTAGTGCACATTTTACCTTTATAC
DNA 2: GTATAAAGGTAAAATGTGCACTAAATTAAAATGGGT
B35: GTGCAC_site9937 (dsDNA)
DNA 1: TTTCACATATATATGGTGCATATTTTATGTGTAAAT
DNA 2: ATTTACACATAAAATATGCACCATATATATGTGAAA
B36: GTGCAC_site10559 (dsDNA)
DNA 1: TAAATATTTTTATGGGTGCGTTCTTTAGCGCAATTT
DNA 2: AAATTGCGCTAAAGAACGCACCCATAAAAATATTTA
B37: GTGCAC_site10569 (dsDNA)
DNA 1: TACTATTATAAATATGTGCACTTCAATAATATACTA
DNA 2: TAGTATATTATTGAAGTGCACATATTTATAATAGTA
B38: GTGCAC_site9511 (dsDNA)
DNA 1: TTTATATTTATGTAGGTGCATTTGTTTACAACATAT
DNA 2: ATATGTTGTAAACAAATGCACCTACATAAATATAAA
B39: GTGCAC_site10187 (dsDNA)
DNA 1: TTAAAAAATAACAAGGTGCAAATAGGTTTATAAAAT
DNA 2: ATTTTATAAACCTATTTGCACCTTGTTATTTTTTAA
B40: GTGCAC_site10377 (dsDNA)
DNA 1: GAATAAATATTAAATGTGCACTTGAATAGATGTAAA
DNA 2: TTTACATCTATTCAAGTGCACATTTAATATTTATTC
B41: GTGCAC_site10713 (dsDNA)
DNA 1: TTTTTTTTTCAAGAGGTGCGTGTATTTTAACAAAAA
DNA 2: TTTTTGTTAAAATACACGCACCTCTTGAAAAAAAAA
B42: GTGCAC_site10388 (dsDNA)
DNA 1: B13 DNA 1 with C3T, G25A, G30A, T32A
DNA 2: B13 DNA 2 with A5T, C7T, C12T, G34A
B43: GTGCAC_site10274 (dsDNA)
DNA 1: CAACCTTTTTTGTTGGTGCATAATTTTTTTTTCTTT
DNA 2: AAAGAAAAAAAAATTATGCACCAACAAAAAAGGTTG

Tests used:
[1] = target: AP2-I D3 (Plasmodium falciparum, UniProt Q8IJW6 910-1027); assay: gcPBM; about 25 ug protein; PBS, 1% milk, 0.2 mg/ml BSA, salmon testes DNA, 0.03% Triton X-100; conditions: tags: N-terminal GST (pGEX-4T-1), kept; label: surface-attached array probe
[2] = target: T1, SIP2 D1; assay: as above; conditions: tags: N-terminal GST (pGEX-4T-1), kept; label: surface-attached array probe

| Binder | binding signal [1] | binding signal [2] |
| --- | --- | --- |
| B1 | 12.4 ln median PBM intensity, better of two orientations | – |
| B2 | 12.3 ln median PBM intensity, better of two orientations | – |
| B3 | 12.3 ln median PBM intensity, better of two orientations | – |
| B4 | 12.3 ln median PBM intensity, better of two orientations | – |
| B5 | 12.3 ln median PBM intensity, better of two orientations | – |
| B6 | 12.2 ln median PBM intensity, better of two orientations | – |
| B7 | 12.2 ln median PBM intensity, better of two orientations | – |
| B8 | 12.2 ln median PBM intensity, better of two orientations | – |
| B9 | 12.2 ln median PBM intensity, better of two orientations | – |
| B10 | 12.2 ln median PBM intensity, better of two orientations | – |
| B11 | 12.2 ln median PBM intensity, better of two orientations | – |
| B12 | 12.2 ln median PBM intensity, better of two orientations | – |
| B13 | 12.2 ln median PBM intensity, better of two orientations | – |
| B14 | 12.1 ln median PBM intensity, better of two orientations | – |
| B15 | 12.1 ln median PBM intensity, better of two orientations | – |
| B16 | 12.1 ln median PBM intensity, better of two orientations | – |
| B17 | 12.1 ln median PBM intensity, better of two orientations | – |
| B18 | 12.1 ln median PBM intensity, better of two orientations | – |
| B19 | 12.1 ln median PBM intensity, better of two orientations | – |
| B20 | 12.1 ln median PBM intensity, better of two orientations | – |
| B21 | 12.1 ln median PBM intensity, better of two orientations | – |
| B22 | 12.1 ln median PBM intensity, better of two orientations | – |

| Binder | binding signal [1] | binding signal [2] |
| --- | --- | --- |
| B23 | 12.1 ln median PBM intensity, better of two orientations | – |
| B24 | 12.1 ln median PBM intensity, better of two orientations | – |
| B25 | 12.1 ln median PBM intensity, better of two orientations | – |
| B26 | – | 10.8 ln median PBM intensity, better of two orientations |
| B27 | – | 10.7 ln median PBM intensity, better of two orientations |
| B28 | – | 10.7 ln median PBM intensity, better of two orientations |
| B29 | – | 10.7 ln median PBM intensity, better of two orientations |
| B30 | – | 10.6 ln median PBM intensity, better of two orientations |
| B31 | – | 10.6 ln median PBM intensity, better of two orientations |
| B32 | – | 10.6 ln median PBM intensity, better of two orientations |
| B33 | – | 10.5 ln median PBM intensity, better of two orientations |
| B34 | – | 10.5 ln median PBM intensity, better of two orientations |
| B35 | – | 10.5 ln median PBM intensity, better of two orientations |
| B36 | – | 10.4 ln median PBM intensity, better of two orientations |
| B37 | – | 10.4 ln median PBM intensity, better of two orientations |
| B38 | – | 10.3 ln median PBM intensity, better of two orientations |
| B39 | – | 10.3 ln median PBM intensity, better of two orientations |
| B40 | – | 10.3 ln median PBM intensity, better of two orientations |
| B41 | – | 10.3 ln median PBM intensity, better of two orientations |
| B42 | – | 10.2 ln median PBM intensity, better of two orientations |
| B43 | – | 10.2 ln median PBM intensity, better of two orientations |
